Measurements from patent US20200190204A1.

Molecular target: hBAFF-R-GFP fusion protein on mouse fibroblast L cells (clone D2C) (human) (UniProt Q96RJ3)
Assay: flow cytometry on BAFF-R-expressing D2C L cells, 0.5 µg recombinant BAFF/10^6 cells, anti-BAFF-PE; unstained cells 0.0217; in the signal plot the 0 ng trace peaks between 10^2 and 10^3, the unstained one at about 10^2

Q: “recombinant BAFF ligand (from UniProt Q9Y275 134-285)” was tested. Which gate number, percent of cells above the BAFF-PE line (no % sign printed) did it give?
A: 59.6%
